The text below walks through data of publication doi:10.1101/2024.10.14.618187, “Molecular basis of interchain disulfide-bond formation in BMP-9 and BMP-10” (bioRxiv, 2024).

B1: Pro-(X)-BMP-9 G389S (natural protein, human, UniProt Q9UK05 23-429, looked up)
chain: KPLQSWGRGSAGGNAHSPLGVPGGGLPEHTFNLKMFLENVKVDFLRSLNLSGVPSQDKTRVEPPQYMIDLYNRYTSDKSTTPASNIVRSFSMEDAISITATEDFPFQKHILLFNISIPRHEQITRAELRLYVSCQNHVDPSHDLKGSVVIYDVLDGTDAWDSATETKTFLVSQDIQDEGWETLEVSSAVKRWVRSDSTKSKNKLEVTVESHRKGCDTLDISVPPGSRNLPFFVVFSNDHSSGTKETRLELREMISHEQESVLKKLSKDGSTEAGESSHEEDTDGHVAAGSTLAIEGRSSGAGSHCQKTSLRVNFEDIGWDSWIIAPKEYEAYECKGGCFFPLADDVTPTKHAIVQTLVHLKFPTKVSKACCVPTKLSPISVLYKDDMGVPTLKYHYEGMSVAECGCR
notes: also called G389S BMP-9; source: expi293 (suspension HEK293), secreted; purified by IMAC; not shown: 8xHis, N-terminal, kept
B2: Pro-(X)-BMP-9 K357R (natural protein, human, UniProt Q9UK05 23-429, looked up)
chain: KPLQSWGRGSAGGNAHSPLGVPGGGLPEHTFNLKMFLENVKVDFLRSLNLSGVPSQDKTRVEPPQYMIDLYNRYTSDKSTTPASNIVRSFSMEDAISITATEDFPFQKHILLFNISIPRHEQITRAELRLYVSCQNHVDPSHDLKGSVVIYDVLDGTDAWDSATETKTFLVSQDIQDEGWETLEVSSAVKRWVRSDSTKSKNKLEVTVESHRKGCDTLDISVPPGSRNLPFFVVFSNDHSSGTKETRLELREMISHEQESVLKKLSKDGSTEAGESSHEEDTDGHVAAGSTLAIEGRSSGAGSHCQKTSLRVNFEDIGWDSWIIAPKEYEAYECRGGCFFPLADDVTPTKHAIVQTLVHLKFPTKVGKACCVPTKLSPISVLYKDDMGVPTLKYHYEGMSVAECGCR
notes: also called K357R BMP-9; source: expi293 (suspension HEK293), secreted; purified by IMAC; not shown: 8xHis, N-terminal, kept
B3: Pro-(X)-BMP-9 (natural protein, human, UniProt Q9UK05 23-429, looked up)
chain: KPLQSWGRGSAGGNAHSPLGVPGGGLPEHTFNLKMFLENVKVDFLRSLNLSGVPSQDKTRVEPPQYMIDLYNRYTSDKSTTPASNIVRSFSMEDAISITATEDFPFQKHILLFNISIPRHEQITRAELRLYVSCQNHVDPSHDLKGSVVIYDVLDGTDAWDSATETKTFLVSQDIQDEGWETLEVSSAVKRWVRSDSTKSKNKLEVTVESHRKGCDTLDISVPPGSRNLPFFVVFSNDHSSGTKETRLELREMISHEQESVLKKLSKDGSTEAGESSHEEDTDGHVAAGSTLAIEGRSSGAGSHCQKTSLRVNFEDIGWDSWIIAPKEYEAYECKGGCFFPLADDVTPTKHAIVQTLVHLKFPTKVGKACCVPTKLSPISVLYKDDMGVPTLKYHYEGMSVAECGCR
notes: human proBMP9 residues 23-429, furin site RRKR replaced by factor X site IEGR; Secreted unprocessed as a monomer-dimer mixture; also called Pro-BMP-9 with factor-X processing site; Pro-BMP-9 wild-type; source: expi293 (suspension HEK293), secreted; purified from conditioned medium by IMAC; not shown: 8xHis, N-terminal, kept
B4: Pro-(fr)-Act-A (natural protein, human, UniProt P08476 27-426, looked up)
chain: EGHSAAPDCPSCALAALPKDVPNSQPEMVEAVKKHILNMLHLKKRPDVTQPVPKAALLNAIRKLHVGKVGENGYVEIEDDIGRRAEMNELMEQTSEIITFAESGTARKTLHFEISKEGSDLSVVERAEVWLFLKVPKANRTRTKVTIRLFQQQKHPQGSLDTGEEAEEVGLKGERSELLLSEKVVDARKSTWHVFPVSSSIQRLLDQGKSSLDVRIACEQCQESGASLVLLGKKKKKEEEGEGKKKGGGEGGAGADEEKEQSHRPFLMLQARQSEDHPHRRRRRGLECDGKVNICCKKQFFVSFKDIGWNDWIIAPSGYHANYCEGECPSHIAGTSGSSLSFHSTVINHYRMRGHSPFANLKSCCVPTKLRPMSMLYYDDGQNIIKKDIQNMIVEECGCS
notes: human proINHBA residues 27-426; The results call it N-terminally histidine-tagged and purified by that tag; the methods say 'with no tag or processing site'; Furin processing incomplete; also called Pro-Activin-A; Pro-Act-A; source: expi293 (suspension HEK293), secreted; purified from conditioned medium by the histidine tag; not shown: His tag, N-terminal, kept
B5: BMP-9 G389S dimer (ligand, human, UniProt Q9UK05 320-429, looked up)
chain: SSGAGSHCQKTSLRVNFEDIGWDSWIIAPKEYEAYECKGGCFFPLADDVTPTKHAIVQTLVHLKFPTKVSKACCVPTKLSPISVLYKDDMGVPTLKYHYEGMSVAECGCR
modifications: interchain disulfide at Cys-392
notes: human BMP-9 growth factor domain from a mutant of Pro-(X)-BMP-9 (proBMP9 residues 23-429, A321S, RRKR replaced by IEGR); numbers count on the precursor; Rows of m3 with m3 mean the two chains of the dimer; source: expi293 (suspension HEK293), mutant of Pro-(X)-BMP-9; purified dimer
B6: BMP-9 G389S, K357R dimer (ligand, human, UniProt Q9UK05 320-429, looked up)
chain: SSGAGSHCQKTSLRVNFEDIGWDSWIIAPKEYEAYECRGGCFFPLADDVTPTKHAIVQTLVHLKFPTKVSKACCVPTKLSPISVLYKDDMGVPTLKYHYEGMSVAECGCR
modifications: interchain disulfide at Cys-392
notes: human BMP-9 growth factor domain from a mutant of Pro-(X)-BMP-9 (proBMP9 residues 23-429, A321S, RRKR replaced by IEGR); numbers count on the precursor; Rows of m4 with m4 mean the two chains of the dimer; also called BMP-9 double-mutant; source: expi293 (suspension HEK293), mutant of Pro-(X)-BMP-9; purified dimer

One data set deals with the molecule itself. The experiment in a line: non-reducing SDS-PAGE after IMAC, with densitometry; His-tagged pro-proteins purified from expi293 conditioned medium by IMAC, run non-reduced and reduced; shows the disulfide-linked dimer beside the monomer; bands quantified with ImageJ.
B1: the binding result is listed as “binds”. B2: the binding result was “binds”. Consider B3, for which the binding result was “binds”. On to B4, for which the binding result is listed as “binds”.

Another data set deals with the molecule itself. Briefly: crystal structure; purified BMP-9 dimers at acidic pH: wild type 0.3 M sodium citrate pH 3.5; mutants 0.1 M acetic acid pH 4.
As to B5, the binding result is on record as “binds”. With B6, the binding result is on record as “binds”.
